Consider 2 substances from article PMC3003327.

Assay [1] deals with actin filaments (F-actin) of Acanthamoeba castellani cytoplasmic actin (Acanthamoeba castellani). The assay is described as follows: single-molecule TIRF microscopy.
Assay [2] shares this target. The assay is described as follows: single-filament TIRF elongation rate against VASP concentration.

In the case of “Cy3-KCK-hVASP^1-380aa (C7S, C64S, C334A) (from UniProt P50552 1-380) (natural protein)”, in assay [1], the dwell time at the growing barbed end with 1 µM actin was 1.45 s, the dwell time τ1 (single exponential fit without the static molecules) is 0.44 s, the dwell time τ1 on filament regions with p(ADP-Pi) < 0.5 worked out at 1 s and the dwell time τ1 on filament regions with p(ADP-Pi) > 0.5 came out at 0.93 s. In assay [1], this substance displayed a dwell time τ1 on the sides of growing filaments of 0.22 s and a dwell time τ2 (static binding; double exponential fit of all interactions) of 4.99 s.
“human VASP^1-380aa, unlabeled wild type (untagged hVASP^1-380aa) (from UniProt P50552 1-380) (natural protein)” showed a Kd in assay [2] of 9.2 nM.
